This note sets out measurements from article PMC3109872.

This data set has as its target ETV5 DNA-binding domain (pET-41a) (UniProt Q9CXC9 368-448). In words: EMSA. For orientation: Mobility shift assays separate free from complexed probe on a gel.

Sequence of ETV5 DNA-binding domain (pET-41a) (Q9CXC9 368-448): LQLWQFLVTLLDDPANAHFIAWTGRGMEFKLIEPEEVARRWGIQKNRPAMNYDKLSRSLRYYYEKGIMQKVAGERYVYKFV

B1: EBS3 probe (Ccl9) (dsDNA)
DNA 1: CTCTAGTACCAGGGAATTTAACACCCTCTTC
DNA 2: GAAGAGGGTGTTAAATTCCCTGGTACTAGAG
In the case of B1, the binding result was “binds”.
